# Experimental data published in article PMC8853325.
# B1: His6-WbpX (Pseudomonas aeruginosa) (protein)
# chain: MTRLLVECTYVFEHPKVNSGIQRVVRNVIRELPEADETVECIPVAMLDGTLYQVHSLAPLDPRPHSPLVRLRILVERAANYFWLGQRTLEKRRPFRSSPWARRLLYVACRLFAFAFLSIPLRLLDRILGKQQPAPVRATPLEHRAGDQLVLLDSSWHADFFPLAERLKSEGVGIVSVIYDLIPLTHPQFCDAGLVKVFNHWFDWIAATADGYVAISETIRDEVRAEMLRRIGPEKVAQRWFDYFHLGSELDLVEDGASVEPDLLRMFKAKAPVFLMVSTIEPRKNHGYLLDAFERAWAQGSQARLCIAGRIGWKCEALVERVRQHPELNKRLFMFNDLSDKSLEYAYSHAASLVFPSYVEGFGLPLVEAMQRGLPAMGSDIPVFREIGGEFMAYFDLADPQTLANLVTRFEATGEFPAERPVGEWRWIGWHEASRQLIARILLALGKAPAHGEAVHADCG
# Experiments:
# [1] = substrate: CC(=O)N[C@H]1[C@@H](OP(=O)(O)OP(=O)(O)OCCCCCCCCCCCOc2ccccc2)O[C@H](CO)[C@@H](O)[C@@H]1O[C@H]1O[C@H](C)[C@@H](O)[C@H](O)[C@@H]1O; test: cells, lysate or membranes; conditions: donor GDP-D-[^3H]Rha, 5 mM MnCl2, Tris pH 9, 37 °C
# [2] = substrate: C[C@H]1O[C@H](OCc2ccccc2)[C@@H](O)[C@@H](O)[C@@H]1O; test: cells, lysate or membranes; conditions: donor GDP-D-[^3H]Rha, 5 mM MnCl2, Tris pH 9, 37 °C
protein,measurement,setting,value
B1,Km,[1],0.22 mM
same,Km,[2],0.021 mM
